Experimental data from patent US8808980B2, “Stabilized open form transglutaminase as a diagnostic indictor for autoimmune diseases” (Zedira GmbH, priority 2009, dated 2014).

B1: TG2 ΔE447: tissue transglutaminase deletion mutant lacking C-terminal amino acids from position E447 (protein, UniProt P21980 1-446, looked up, fragment)
chain: MAEELVLERCDLELETNGRDHHTADLCREKLVVRRGQPFWLTLHFEGRNYEASVDSLTFSVVTGPAPSQEAGTKARFPLRDAVEEGDWTATVVDQQDCTLSLQLTTPANAPIGLYRLSLEASTGYQGSSFVLGHFILLFNAWCPADAVYLDSEEERQEYVLTQQGFIYQGSAKFIKNIPWNFGQFEDGILDICLILLDVNPKFLKNAGRDCSRRSSPVYVGRVVSGMVNCNDDQGVLLGRWDNNYGDGVSPMSWIGSVDILRRWKNHGCQRVKYGQCWVFAAVACTVLRCLGIPTRVVTNYNSAHDQNSNLLIEYFRNEFGEIQGDKSEMIWNFHCWVESWMTRPDLQPGYEGWQALDPTPQEKSEGTYCCGPVPVRAIKEGDLSTKYDAPFVFAEVNADVVDWIQQDDGSVHKSINRSLIVGLKISTKSVGRDEREDITHTYKYP
B2: TG2 ΔS538: tissue transglutaminase deletion mutant lacking C-terminal amino acids from position S538 (protein, UniProt P21980 1-537, looked up, fragment)
chain: MAEELVLERCDLELETNGRDHHTADLCREKLVVRRGQPFWLTLHFEGRNYEASVDSLTFSVVTGPAPSQEAGTKARFPLRDAVEEGDWTATVVDQQDCTLSLQLTTPANAPIGLYRLSLEASTGYQGSSFVLGHFILLFNAWCPADAVYLDSEEERQEYVLTQQGFIYQGSAKFIKNIPWNFGQFEDGILDICLILLDVNPKFLKNAGRDCSRRSSPVYVGRVVSGMVNCNDDQGVLLGRWDNNYGDGVSPMSWIGSVDILRRWKNHGCQRVKYGQCWVFAAVACTVLRCLGIPTRVVTNYNSAHDQNSNLLIEYFRNEFGEIQGDKSEMIWNFHCWVESWMTRPDLQPGYEGWQALDPTPQEKSEGTYCCGPVPVRAIKEGDLSTKYDAPFVFAEVNADVVDWIQQDDGSVHKSINRSLIVGLKISTKSVGRDEREDITHTYKYPEGSSEEREAFTRANHLNKLAEKEETGMAMRIRVGQSMNMGSDFDVFAHITNNTAEEYVCRLLLCARTVSYNGILGPECGTKYLLNLNLEPF
B3: open TG2: recombinant TG2 stabilized in its open form by reaction with the inhibitor Z-PIMen(OEt)-QPL-OMe (protein, UniProt P21980 2-687, looked up)
Protein-glutamine …: AEELVLERCDLELETNGRDHHTADLCREKLVVRRGQPFWLTLHFEGRNYEASVDSLTFSVVTGPAPSQEAGTKARFPLRDAVEEGDWTATVVDQQDCTLSLQLTTPANAPIGLYRLSLEASTGYQGSSFVLGHFILLFNAWCPADAVYLDSEEERQEYVLTQQGFIYQGSAKFIKNIPWNFGQFEDGILDICLILLDVNPKFLKNAGRDCSRRSSPVYVGRVVSGMVNCNDDQGVLLGRWDNNYGDGVSPMSWIGSVDILRRWKNHGCQRVKYGQCWVFAAVACTVLRCLGIPTRVVTNYNSAHDQNSNLLIEYFRNEFGEIQGDKSEMIWNFHCWVESWMTRPDLQPGYEGWQALDPTPQEKSEGTYCCGPVPVRAIKEGDLSTKYDAPFVFAEVNADVVDWIQQDDGSVHKSINRSLIVGLKISTKSVGRDEREDITHTYKYPEGSSEEREAFTRANHLNKLAEKEETGMAMRIRVGQSMNMGSDFDVFAHITNNTAEEYVCRLLLCARTVSYNGILGPECGTKYLLNLNLEPFSEKSVPLCILYEKYRDCLTESNLIKVRALLVEPVINSYLLAERDLYLENPEIKIRILGEPKQKRKLVAEVSLQNPLPVALEGCTFTVEGAGLTEEQKTVEIPDPVEAGEEVKVRMDLLPLHMGLHKLVVNFESDKLKAVKGFRNVIIGPA
modifications: Z-PIMen(OEt)-QPL-OMe inhibitor adduct

Columns and labels:
[1] = enzymatic activity of truncated tissue transglutaminases; type: biochemical
Excerpt: Tissue transglutaminase fragments were produced recombinantly in E. coli as deletion mutants lacking C-terminal amino acids from positions S538 and E447 according to example 1 an methods known to persons skilled in the art. The resulting truncated tissue transglutaminases still were enzymatically active, although the activity was reduced to 5 and 1% respectively compared to the full length enzyme. Transglutaminase 6 fragment lacking the C-terminal amino acids from position G594 was produced accordingly.

[2] = test system: Patient F (celiac disease); experiment: hyposensitisation of a celiac disease patient with open TG2; type: in vivo, human; conditions: subcutaneous, 6 months weekly rising doses, then monthly 1.5 years; then 1 g gluten per day
Excerpt: Patient F suffered from celiac disease and has been on gluten free diet for 8 years. […] Patient F has been injected subcutaneously a solution containing open TG2, which has been produced according to example 1. Injections have been repeated weekly over a period of six months; the doses have been increased over this period in order to reach the maintenance dose. The application has then been repeated applying the maintenance dose once a month for 1.5 years. Patient F was kept on a strict gluten free diet for this whole hyposensitisation therapy period. Later-on the patient started to consume minor amounts (1 g per day) of gluten in addition to the gluten free diet.

Molecule	enzymatic activity compared to the full length enzyme [1] [%]	celiac disease symptoms after hyposensitisation therapy [2]
B1	1	
B2	5	
B3		No celiac disease symptoms could be measured clinically or by biopsy or serology
